Results on one substance are retold here after publication PMC3213119.

The assay has as its target TssM-ekto (periplasmic domain of TssM, 386-1129), after TEV cleavage (enteroaggregative Escherichia coli strain 17-2). Briefly: SEC-MALS; MALS/QELS/UV/RI of the TssM-ekto/TssJ complex; 10 mM HEPES pH 7.5, 150 mM NaCl.

As for “TssJ (enteroaggregative E. coli Sci1 T6SS), residues 2-155 of the processed lipoprotein, fusion and tag cleaved (domain or fragment)”, the stoichiometry N was 1.
